Experimental data taken from publication PMC10213502, “ICA69 regulates activity-dependent synaptic strengthening and learning and memory” (Frontiers in Molecular Neuroscience, 2023).

Target: T1, GFP-tagged PICK1 (UniProt Q9EP80 1-416)
T1 construct: construct as previously described (Cao et al., 2007); also called GFP-PICK1; source: HEK293T, transfected, in lysate
Assay: co-IP; HEK cells co-transfected with the GFP-tagged bait and both myc-tagged proteins; IP with GFP antibody (normal rabbit serum as control), myc blot; IP signals normalised to input; lysis buffer 1% NP-40, 200 mM NaCl, 20 mM HEPES pH 7.4; 4°C
Conditions: partners not purified

T1 sequence (Q9EP80 whole entry): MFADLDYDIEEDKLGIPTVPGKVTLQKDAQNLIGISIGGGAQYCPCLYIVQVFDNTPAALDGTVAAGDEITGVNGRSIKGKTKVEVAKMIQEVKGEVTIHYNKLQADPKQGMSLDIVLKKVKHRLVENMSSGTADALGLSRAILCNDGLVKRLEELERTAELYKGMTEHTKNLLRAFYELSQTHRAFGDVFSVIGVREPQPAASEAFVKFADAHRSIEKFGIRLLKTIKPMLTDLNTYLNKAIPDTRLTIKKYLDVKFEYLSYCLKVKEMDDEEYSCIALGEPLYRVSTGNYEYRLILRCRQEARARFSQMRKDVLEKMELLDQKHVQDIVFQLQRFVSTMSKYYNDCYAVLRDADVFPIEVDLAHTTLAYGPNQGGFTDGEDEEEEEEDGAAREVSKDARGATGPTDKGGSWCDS

B1: myc-tagged ICA69 (full-length) (natural protein, UniProt Q63054 1-480, looked up)
chain: MSGHKCYSWELQDRFAQDKSVVNKMQQKYWETKQAFIKATGKKEDEHVVASDADLDAKLELFHSIQRTCLDLSKAIVLYQKRICFLSQEENELGKFLRSQGFQDKTRAGKMMQATGKALCFSSQQRLALRNPLCRFHQEVETFRHRAISDTWLTVNRMEQCRTEYRGALLWMKDVSQELDPDLYKQMEKFRKVQTQVRLAKKNFDKLKMDVCQKVDLLGASRCNLLSHMLATYQTTLLHFWEKTSHTMAAIHESFKGYQPYEFTTLKSLQDPMKKLVEKEKKKSSRRENREAVAQEPRQLISLEEENQHKESSTCQKEEGKSVPSSVDKSSADDACSGPIDELLDVKPEEACLGPMAGTPEPESGDKDDLLLLNEIFSTSSLDEGEFSREWAAVFGDDRLKEPAPMGAQGEPDPKPQIGSAFLPSQLLDQNMKDLQASLQEPAKAASDLTAWFSLFADLDPLSNPDAIGKTDKEHELLNA
notes: ICA69 (islet cell autoantigen of 69 kDa), myc-tagged full-length made by overlap extension PCR; The same protein as m1, with another tag; also called myc-ICA69; source: HEK293T, transfected, in lysate
heteromer/homomer ratio (myc-ICA69 over myc-PICK1 in the IP of GFP-PICK1): 19 ratio
